Series [1] concerns MAO B. In words: pH profiles of wild-type and mutant MAO B enzymatic activity with [14C]benzylamine. Particulars: pH 6.0 to 9.0, 500 μM benzylamine. It is filed as biochemical, human. On the procedure: Aliquots (20 μl) of transfected COS-7 cell homogenates were incubated for 10 min at 37° C. in the presence of 500 μM (^14C)benzylamine (2.5 mCi/mmol) in 50 mM sodium phosphate buffer, pH 6.0, 6.5, 7.0, 7.5, 8.0, 8.5 or 9.0 (200 μl total volume). Reactions were stopped by addition of 25 μl of 6 N HCl. Parallel assays were carried out with untransfected COS-7 homogenates as a control. Samples were processed as previously described (28) and the derived specific activity values (nmol/min·mg protein) were divided by wild-type or mutant MAO B concentration, determined for each experiment, to obtain enzymatic activity values (nmol/min·m g MAO B). Enzymatic activities were determined in duplicate for three separate experiments.
To examine the possibility that the mutation effects a proton-dependent step in the reaction, the enzymatic activity of the mutant and wild-type MAO B enzymes was determined at different pH values from 6.0 to 9.0 (FIG. 4).

Series [2] deals with MAO B. In words: Kinetic analysis of wild-type and mutant MAO B with [14C]PEA substrate (transfected COS-7 cell homogenates). The format is biochemical, human. The note with it: PEA substrate; activity too low to determine kinetic parameters. On the procedure:
(§1) The wild-type and mutant MAO B enzymes were expressed in mammalian COS-7 cells, and the enzymatic properties of the native enzyme and its mutant enzymes were determined and compared. Wild-type and mutant MAO B cDNAs were transiently transfected into COS-7 cells by electroporation. Cells were harvested during late log phase growth and resuspended to a concentration of 3.125×10^6 cells/ml in DMEM supplemented with 10% fetal bovine serum (FBS). Fifteen μg of normal or mutant cDNA were added to 0.8 ml (2.5×10^6 cells) of cell suspension. Electroporation was carried out in a Bio-Rad Gene Pulser with a setting of 0.25 kV and 500 μF. Cells were resuspended in 15 ml of DMEM/FBS and incubated at 37° C. with 5% CO2 for 48 h.
(§2) Aliquots (20 μl) of transfected COS-7 cell homogenates were incubated for 10 min at 37° C. in the presence of various concentrations of [^14C]PEA (20 mCi/mmol) or [^14C]benzylamine (10 mCi/mmol) in 50 mM sodium phosphate buffer, pH 7.5 (200 μl total volume). Substrate concentrations ranged from 0.25-2.5 times the Km value (determined in pilot experiments) to yield 10 equally-spaced reciprocal increments. Parallel assays were carried out with untransfected COS-7 cell lysates as a control. Reactions were stopped by addition of 25 μl of 6 N HCl and the deaminated products were extracted by vortexing for 30 seconds with 500 μl of toluene or toluene:ethyl acetate (1:1) for benzylamine or PEA, respectively. Samples were processed as described previously (28). Apparent Km and Vmax values were determined by linear regression analysis of Lineweaver-Burk plots. Kcat values were calculated from the Vmax values divided by the concentration of wild-type or mutant MAO B determined in each experiment. Expression levels of wild-type or mutant MAO B were determined in triplicate for six separate experiments as follows: wild-type=11.1+2.07; F423A=9.30+1.89; E427Q=10.3+1.29; T428A=10.2+2.07; T428S=10.2+1.53 pmol MAO B/mg protein. Data are given as means +S.E.M. pmol/mg of protein determined using a subunit molecular weight of 58,800.

In series [3] the target is T1, MAO B (Homo sapiens, UniProt P27338, F423A).
T1 construct: expressed in transfected cells; host or cells: COS-7
T1 sequence (P27338 2-520 F423A): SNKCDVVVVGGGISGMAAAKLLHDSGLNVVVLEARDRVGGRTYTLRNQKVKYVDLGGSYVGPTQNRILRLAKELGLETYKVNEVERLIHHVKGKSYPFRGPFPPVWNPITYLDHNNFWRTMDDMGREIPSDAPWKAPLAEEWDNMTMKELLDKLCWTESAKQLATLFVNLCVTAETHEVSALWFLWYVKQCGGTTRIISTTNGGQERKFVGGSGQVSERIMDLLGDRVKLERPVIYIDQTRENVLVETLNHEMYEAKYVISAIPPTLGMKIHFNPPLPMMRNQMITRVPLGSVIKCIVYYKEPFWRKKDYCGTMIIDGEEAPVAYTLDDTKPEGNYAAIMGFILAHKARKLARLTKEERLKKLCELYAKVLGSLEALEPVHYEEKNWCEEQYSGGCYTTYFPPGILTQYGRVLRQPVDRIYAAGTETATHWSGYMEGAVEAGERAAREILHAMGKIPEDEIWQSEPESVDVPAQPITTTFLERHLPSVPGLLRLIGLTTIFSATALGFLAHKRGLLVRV
The series is described as above. It is filed as biochemical. Particulars: substrate not stated in the sentence (Tables 1 and 2: PEA and benzylamine). On the procedure: as §1, §2

The next series relates to COS-7 cells. In words: Expression levels of wild-type or mutant MAO B in transfected COS-7 cells. Particulars: transiently transfected COS-7 cells, triplicate, six experiments, mean + S.E.M., subunit molecular weight 58,800. On the procedure:
as §1, §2

The subject of series [4] is MAO B. In words: Kinetic analysis of wild-type and mutant MAO B with [14C]benzylamine substrate (transfected COS-7 cell homogenates). The note with it: activity too low to determine kinetic parameters. It is filed as biochemical, human. On the procedure: as §1, §2

The values that follow come from US6790646B2, “Mutants of monoamine oxidase B” (Research Development Foundation, priority 1998, dated 2004).

B1: F423 A: human MAO B mutant, Phe residue at position 423 changed to Ala (protein, UniProt P27338 2-520, looked up, variant F423A)
Amine oxidase …: SNKCDVVVVGGGISGMAAAKLLHDSGLNVVVLEARDRVGGRTYTLRNQKVKYVDLGGSYVGPTQNRILRLAKELGLETYKVNEVERLIHHVKGKSYPFRGPFPPVWNPITYLDHNNFWRTMDDMGREIPSDAPWKAPLAEEWDNMTMKELLDKLCWTESAKQLATLFVNLCVTAETHEVSALWFLWYVKQCGGTTRIISTTNGGQERKFVGGSGQVSERIMDLLGDRVKLERPVIYIDQTRENVLVETLNHEMYEAKYVISAIPPTLGMKIHFNPPLPMMRNQMITRVPLGSVIKCIVYYKEPFWRKKDYCGTMIIDGEEAPVAYTLDDTKPEGNYAAIMGFILAHKARKLARLTKEERLKKLCELYAKVLGSLEALEPVHYEEKNWCEEQYSGGCYTTYFPPGILTQYGRVLRQPVDRIYAAGTETATHWSGYMEGAVEAGERAAREILHAMGKIPEDEIWQSEPESVDVPAQPITTTFLERHLPSVPGLLRLIGLTTIFSATALGFLAHKRGLLVRV
Regarding B1, the “pH profile of enzymatic activity” value with MAO B [1] is given as “fairly similar to wild-type MAO B”. For the same molecule, the “activity relative to wild-type” value in the series with MAO B [2] and with MAO B [4] was “(<5% wt)” each time. For the same molecule, the “decrease in activity compared to the wild-type enzyme” value with MAO B [3] is over 95 % reduction. Also, the Expression level in the series on COS-7 cells is listed as 9.30+1.89 pmol MAO B/mg protein.
